# Test results: the supplement of paper PMC10724198
# ± gives the standard deviation of the averaged measurements.
# Test system: Saccharomyces cerevisiae
# Assay: protein stability index of tFT-peptide fusion (C-terminal peptide) (PSI (0-1 scale)); higher = more stable (slower turnover)
# Details: genetic background: wild type; temperature: 30 C
# Description: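 MPS profiling in S. cerevisiae of the yeast C-terminome library: the last 12 aa of each annotated ORF are fused to the C-terminus of a sfGFP-mCherry timer, after a GGGS linker. Cells are FACS-sorted into 8 mCherry/sfGFP bins and deep-sequenced. PSI runs from 0 (unstable) to 1 (stable); wild type and das1Δ backgrounds, two technical replicates each.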
row,Sequence,protein stability index
1,DSVIVVLKTPVE [SMD2 C-terminal 12 aa],0.658 ± 0.041
2,DTDGMQDQSSNI [IVY1 C-terminal 12 aa],0.679 ± 0.019
3,DVDLTKSGGFKT [CKB2 C-terminal 12 aa],0.714 ± 0.058
4,DVHSKIEKQLGI [UMP1 C-terminal 12 aa],0.697 ± 0.017
5,DWVSHGGDKLDL [RDL1 C-terminal 12 aa],0.704 ± 0.012
6,EAAKKSEKKSKK [RPL34B C-terminal 12 aa],0.706 ± 0.042
7,EAQTSRAKNELS [PHD1 C-terminal 12 aa],0.575 ± 0.011
8,EAVKNDDIQIFG [BFR2 C-terminal 12 aa],0.722 ± 0.031
9,EDADNDNDYDHE [SAP155 C-terminal 12 aa],0.682 ± 0.0061
10,EDHRDISGKDVN [UBP1 C-terminal 12 aa],0.687 ± 0.033
11,EDLDADGDHKLV [TUB4 C-terminal 12 aa],0.672 ± 0.0083
12,EDLDSDLFSEVE [SSF1 C-terminal 12 aa],0.732 ± 0.027
13,EEEKRHGINLKC [GUP2 C-terminal 12 aa],0.687 ± 0.045
14,EEFINKLVKAMN [RPL7B C-terminal 12 aa],0.6163 ± 0.0019
15,EEGIDPSTYLNN [SUB2 C-terminal 12 aa],0.684 ± 0.014
16,EEHHFYREHIFT [OCA4 C-terminal 12 aa],0.7118 ± 0.0058
17,EEKTKKEKSLLQ [NPP2 C-terminal 12 aa],0.726 ± 0.072
18,EELPSDIATLLN [YKR059W; YJL138C C-terminal 12 aa],0.716 ± 0.031
19,EESDSPESTAFY [PMC1 C-terminal 12 aa],0.6671 ± 0.0055
20,EETEKKLKNLKL [YRB30 C-terminal 12 aa],0.684 ± 0.037
21,EEVLEETKEKVE [PRT1 C-terminal 12 aa],0.685 ± 0.013

row,Sequence,protein stability index
1,EEWSSKFGSNGS [YTA6 C-terminal 12 aa],0.725 ± 0.014
2,EFLQIMKARISK [SEC24 C-terminal 12 aa],0.716 ± 0.048
3,EGRGYQQIHKLS [YHR139C-A C-terminal 12 aa],0.253 ± 0.0035
4,EGSAFKKQKHYR [NOP9 C-terminal 12 aa],0.701 ± 0.012
5,EIALRKSGAVGS [YMR008C-A C-terminal 12 aa],0.6727 ± 0.0038
6,EIGGLLLQSFYN [YPL119C-A C-terminal 12 aa],0.7378 ± 0.0018
7,EIGHMYQKIKKS [MNN11 C-terminal 12 aa],0.317 ± 0.014
8,EIKCCHNGRALK [SAT4 C-terminal 12 aa],0.697 ± 0.06
9,EIKQRNLRMQRQ [MPO1 C-terminal 12 aa],0.678 ± 0.01
10,EKAKKSLSKMFS [CPR6 C-terminal 12 aa],0.6927 ± 0.0033
11,EKLKLLNSQQKD [PET191 C-terminal 12 aa],0.722 ± 0.029
12,ELASSILKELKL [KIN1 C-terminal 12 aa],0.703 ± 0.054
13,ELDDILGSDSDF [MPH1 C-terminal 12 aa],0.6837 ± 0.0036
14,ELEELLEPILAN [GRX1 C-terminal 12 aa],0.4708 ± 0.00077
15,ELFTIISRIIED [TSL1 C-terminal 12 aa],0.711 ± 0.046
16,ELIEKLKEVKAI [CIR1 C-terminal 12 aa],0.34 ± 0.013
17,ELKINNDGRLVN [SEC66 C-terminal 12 aa],0.714 ± 0.074
18,ELKKRFDALRRK [IST1 C-terminal 12 aa],0.647 ± 0.0071
19,ELLRIHNSHLRN [FOL3 C-terminal 12 aa],0.709 ± 0.042
20,ELWYKSFGPHDE [APC1 C-terminal 12 aa],0.7187 ± 0.0068
21,ENWIHVSCLSFM [LIN1 C-terminal 12 aa],0.6503 ± 0.0039

row,Sequence,protein stability index
1,EQITSSLQEASE [FSH1 C-terminal 12 aa],0.656 ± 0.0082
2,EQNFHFQFPPTN [IOC2 C-terminal 12 aa],0.729 ± 0.021
3,ERDTTTKPSKRR [KEL3 C-terminal 12 aa],0.698 ± 0.013
4,ERNPTQRPQRRY [RPS10A C-terminal 12 aa],0.679 ± 0.036
5,ERPIVASTSPIA [TPH3 C-terminal 12 aa],0.681 ± 0.0089
6,ERWVRMGELMHY [YBR184W C-terminal 12 aa],0.538 ± 0.058
7,ERYTSIESEIVV [APE4 C-terminal 12 aa],0.673 ± 0.023
8,ESKDDDDDDDWE [DOS2 C-terminal 12 aa],0.648 ± 0.0095
9,ESRLFISDGAVF [MON1 C-terminal 12 aa],0.713 ± 0.041
10,ESSSPSQLQHEA [PHO84 C-terminal 12 aa],0.682 ± 0.024
11,ESTGHVDFGQNR [OTU1 C-terminal 12 aa],0.703 ± 0.012
12,ETAENIAKYIRN [NPA3 C-terminal 12 aa],0.661 ± 0.035
13,ETMVRIRVDGNE [DAD2 C-terminal 12 aa],0.676 ± 0.025
14,EVDDDGEIDGLF [ADE3 C-terminal 12 aa],0.692 ± 0.021
15,EVPGWQEYYDKL [YOR133W; YDR385W C-terminal 12 aa],0.71 ± 0.016
16,EVTSLYTNASNA [DPC29 C-terminal 12 aa],0.703 ± 0.049
17,EYNLDTFIKTLR [MOT1 C-terminal 12 aa],0.6883 ± 0.0023
18,FAKLAAIPCSNA [YMR265C C-terminal 12 aa],0.5659 ± 0.0046
19,FEHFHCVLDQIL [YDR203W C-terminal 12 aa],0.6954 ± 0.0031
20,FFFATQRDLKRT [YDR431W C-terminal 12 aa],0.733 ± 0.019
21,FFMSDMNLSKEG [ATG13 C-terminal 12 aa],0.654 ± 0.048

row,Sequence,protein stability index
1,FFPFITIIFFHS [YCR024C-B C-terminal 12 aa],0.299 ± 0.01
2,FGIKKNDLKKSN [GSF2 C-terminal 12 aa],0.705 ± 0.023
3,FGRKLKKIFGRK [SEG2 C-terminal 12 aa],0.6421 ± 0.0063
4,FIEALAKSVNEL [UGA1 C-terminal 12 aa],0.689 ± 0.054
5,FKELLGYTLVSA [VSB1 C-terminal 12 aa],0.391 ± 0.0093
6,FKITTEHGTTQQ [CRT10 C-terminal 12 aa],0.685 ± 0.031
7,FKLKDEYLLIDD [SAS2 C-terminal 12 aa],0.666 ± 0.031
8,FLIHTPKHPPPT [POG1 C-terminal 12 aa],0.725 ± 0.021
9,FMWLLLALPVVF [FLO11 C-terminal 12 aa],0.393 ± 0.019
10,FRALAELYNLVL [GAS5 C-terminal 12 aa],0.681 ± 0.013
11,FRSTRSNTPNYT [HDA2 C-terminal 12 aa],0.737 ± 0.046
12,FTAVLGTYLLTL [SDH3 C-terminal 12 aa],0.645 ± 0.0016
13,FVLKTLNMNVTN [OST1 C-terminal 12 aa],0.668 ± 0.0024
14,FVRKIYSSIKVD [EMP70 C-terminal 12 aa],0.614 ± 0.04
15,FYNIHDERIREQ [YKL162C-A C-terminal 12 aa],0.657 ± 0.078
16,GATDTSCYKERG [MRPL27 C-terminal 12 aa],0.702 ± 0.085
17,GEEKKHLKMASP [MDE1 C-terminal 12 aa],0.704 ± 0.035
18,GELFQIVSNQSS [STE6 C-terminal 12 aa],0.679 ± 0.0082
19,GFKGFSNKRVKG [MSS18 C-terminal 12 aa],0.6964 ± 0.0036
